Measurements reported in US20040006022A1 (Harvard, published 2004).
Read-outs that look alike come from different tables or passages of the source.

Key:
[1] = biological target: T1, recombinant water-soluble 'empty' HLA-DR1 (DRB1*0101) (human)
T1 chain 1: not shown
T1 chain 2: not shown

[2] = biological target: T2, recombinant water-soluble 'empty' HLA-DR4 (DRB1*0401) (human)
T2 chain 1: not shown
T2 chain 2: not shown

[3] = biological target: T3, HLA-DR1 on L fibroblasts transfected with HLA-DR1 (L57.23) (human); test: cell-based or functional assay
T3 chain 1: not shown
T3 chain 2: not shown

[4] = biological target: T4, HLA-DR4 on L fibroblasts transfected with HLA-DR4 (human); test: cell-based or functional assay
T4 chain 1: not shown
T4 chain 2: not shown

[5] = biological target: T1, recombinant water-soluble 'empty' …; test: competitive binding ELISA on recombinant HLA-DR1; competitor biotinylated YEAK
[6] = biological target: T2, recombinant water-soluble 'empty' …; test: competitive binding ELISA on recombinant HLA-DR4; competitor biotinylated YEAK

Q: For APKYVKQNTLKLATA (modifications not checked) [HA 306-318 bracketed by alanines at N- and C-terminals, …], which affinity determined by competition [1] is on record?
A: 13 µM

Q: And the affinity determined by competition [2]?
A: 26 µM

Q: And the inhibition of the response of 3.19 T cells (IL-2 secretion) [3]?
A: > 98%

Q: What about the inhibition of the response of 19.3 T cells (IL-2 secretion) [3] of the same binder?
A: > 95%

Q: And the inhibition of the DR4 3838 T cell clone (IL-2 secretion) [4]?
A: < 60%

Q: What about the inhibition of the DR4 D3 T cell clone (IL-2 secretion) [4] of the same binder?
A: < 60%

Q: And the affinity determined by competition [5]?
A: 3.3 µM

Q: What about the affinity determined by competition [6] of the same binder?
A: 8.2 µM
